Experimental data as given in publication PMC5454392, “Selective BET bromodomain inhibition as an antifungal therapeutic strategy” (Nature Communications, 2017).
Numbered stars: 1 amine (or outer) side, 2 acyl side, 3 side chain; on linkers, the order of the positions; unused ones are H or OH. Square brackets hold non-standard residues; d marks the D form. Ends that are not written are not given here. Arg(Me2a) = CN(C)C(=N)NCCC[C@H](N)C(=O)O; Kac = CC(=O)NCCCC[C@H](N[*:1])C(=O)[*:2]; Lys(Me3) = C[N+](C)(C)CCCC[C@H](N)C(=O)O; Arg(Me2s) = CN=C(NC)NCCC[C@H](N)C(=O)O; pT = C[C@@H](OP(=O)(O)O)[C@H](N)C(=O)O; Lys(Me2) = CN(C)CCCC[C@H](N)C(=O)O; Lys(Me) = CNCCCC[C@H](N)C(=O)O; Me2a = not defined here; me2a = not defined here

T1: CaBdf1 BD1 (GST-tagged, wild-type) (Candida albicans (strain SC5314 / ATCC …, UniProt Q5A4W8))
T1 chain: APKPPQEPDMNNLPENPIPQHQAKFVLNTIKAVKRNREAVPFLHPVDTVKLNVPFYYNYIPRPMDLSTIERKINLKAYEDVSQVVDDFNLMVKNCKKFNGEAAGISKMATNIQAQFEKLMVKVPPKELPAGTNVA


Biological target: T1, CaBdf1 BD1 (GST-tagged, wild-type)
Experiment: histone peptide array (Active Motif MODified), 1 uM GST-tagged bromodomain, anti-GST detection, normalized mean intensity
ARTKQTARKSTGGKAPRKQ (A Rme2a T Kme2 Q T A R Kac S T G G K A P R K Q) gave a binding score of 0.0337. A[Arg(Me2a)]T[Lys(Me)]QTA[Arg(Me2a)][Lys(Me2)]STGGKAPRKQ showed a binding score of 0.0029. For ARTK(me2)QTAR(me2s)K(me3)STGGKAPRKQ, the binding score was 0.0029. For ARTK(Ac)QTAR(me2s)K(Ac)STGGKAPRKQ, the binding score was 0.0729. ARTK(me2)QTAR(me2s)K(Me)STGGKAPRKQ was tested, and the binding score was 0.00544. For ARTKQTARKSTGGKAPRKQ (A R T Kme3 Q T A Rme2a Kme1 S T G G K A P R K Q), the binding score was 0.00435. ARTKQTARKSTGGKAPRKQ (A Rme2s T Kme3 Q T A R Kme1 S T G G K A P R K Q) showed a binding score of 0.00471. In the case of ARTKQTARKSTGGKAPRKQ (A R T Kme2 Q T A Rme2s Kme2 S T G G K A P R K Q), the binding score is reported as 0.00218. Work on ARTKQTARKSTGGKAPRKQ (A R T K Q T A R Kme3 S T G G Kac A P R K Q) yielded a binding score of 0.0225. ARTKQTARKSTGGKAPRKQ (A R T K Q T A R Kme1 pS T G G K A P R K Q) showed a binding score of 0.00181. Work on A[Arg(Me2s)]T[Lys(Me3)]QTA[Arg(Me2a)][Lys(Me3)]STGGKAPRKQ yielded a binding score of 0.00363. ARTK(Me2)QTAR(Me2a)K(Me3)STGGKAPRKQ (reading uncertain) showed a binding score of 0.00181. For ARTKQTARKSTGGKAPRKQ (A Rme2s T Kme3 Q T A Rme2s K S T G G K A P R K Q), the binding score was 0.0029. Binder A[Arg(Me2a)]TK(Ac)QTA[Arg(Me2a)][Lys(Me3)]STGGKAPRKQ has a binding score of 0.00834. Binder ARTKQTARKSTGGKAPRKQ (A R T Kme1 Q T A Rme2s Kac S T G G K A P R K Q) has a binding score of 0.0305. ARTKQTARKSTGGKAPRKQ (A Rme2s T Kme1 Q T A Rme2s K S T G G K A P R K Q) gave a binding score of 0.00326. ARTKQTARKSTGGKAPRKQ (A Rme2a T Kme2 Q T A Rme2a Kme3 S T G G K A P R K Q) showed a binding score of 0.00254. A[Arg(Me2s)]T[Lys(Me)]QTA[Arg(Me2a)][Lys(Me2)]STGGKAPRKQ showed a binding score of 0.00471. ARTKQTARKSTGGKAPRKQ (A Rme2s T Kme3 Q T A Rme2a Kme2 S T G G K A P R K Q) gave a binding score of 0.0029. ARTKQTARKSTGGKAPRKQ (A R T K Q T A Rme2a K S pT G G K A P R K Q) showed a binding score of 0.00399. Binder ARTKQTARKSTGGK(Ac)APRKQ has a binding score of 0.0319. ARTKQTARKSTGGKAPRKQ (A Rme2s T Kme2 Q T A Rme2s Kac S T G G K A P R K Q) gave a binding score of 0.0239. Work on ARTKQTARKSTGGKAPRKQ (A R T Kme1 Q T A Rme2a Kac S T G G K A P R K Q) yielded a binding score of 0.0257. ARTKQTARKSTGGKAPRKQ (A Rme2s T Kme2 Q T A R Kme3 S T G G K A P R K Q) was tested, and the binding score was 0.00145. Binder ARTKQTARKSTGGKAPRKQ (A Rme2a T Kme2 Q T A Rme2a Kac S T G G K A P R K Q) has a binding score of 0.0395. ARTKQTARKSTGGKAPRKQ (A R T Kme3 Q T A Rme2s Kme1 S T G G K A P R K Q) gave a binding score of 0.00471. ARTKQTARKSTGGKAPRKQ (A Rme2s T Kac Q T A Rme2s K S T G G K A P R K Q) gave a binding score of 0.00363. Binder AR(Me2a)[pT]KQTARKSTGGKAPRKQ (reading uncertain) has a binding score of 0.00181. ARTKQTARKSTGGKAPRKQ (A Rme2a T Kme3 Q T A Rme2a K S T G G K A P R K Q) gave a binding score of 0.00363. ARTKQTARKSTGGKAPRKQ (A Rme2s T Kme1 Q T A Rme2a Kac S T G G K A P R K Q) gave a binding score of 0.0381. With AR(Me2s)TK(Me3)QTAR(Me2s)K(Ac)STGGKAPRKQ the binding score was 0.017. With ARTKQTARKSTGGKAPRKQ (A Rme2s T Kme2 Q T A Rme2a Kme3 S T G G K A P R K Q) the binding score was 0.00508. Work on AR(Me2s)TK(Me3)QTAR(Me2s)K(Me3)STGGKAPRKQ yielded a binding score of 0.00653. For A[Arg(Me2a)]T[Lys(Me3)]QTA[Arg(Me2a)][Lys(Me2)]STGGKAPRKQ, the binding score was 0.00254. ARTKQTARKSTGGKAPRKQ (A R T Kac Q T A Rme2s Kme1 S T G G K A P R K Q) showed a binding score of 0.00508. ARTKQTARKSTGGKAPRKQ (A R T K Q T A Rme2a Kme2 S pT G G K A P R K Q) showed a binding score of 0.00435. For ARTKQTARKSTGGKAPRKQ (A R T Kme1 Q T A Rme2s Kme2 S T G G K A P R K Q), the binding score was 0.00471. For AR(me2s)TK(Ac)QTAR(me2a)K(me2)STGGKAPRKQ (reading uncertain), the binding score was 0.00979. With ARTKQTARKSTGGKAPRKQ (A R T K Q T A Rme2a Kme2 S T G G K A P R K Q) the binding score was 0.0029. ARTKQTARKSTGGKAPRKQ (A R T K Q T A R Kme2 S T G G Kac A P R K Q) was tested, and the binding score was 0.0315. For ARTKQTARKSTGGKAPRKQ (A R T Kme3 Q T A Rme2s Kac S T G G K A P R K Q), the binding score was 0.0286. ARTK(Me)QTAR(Me2a)K(Me2)STGGKAPRKQ (reading uncertain) gave a binding score of 0.0138. With ARTKQTARKSTGGKAPRKQ (A R T K Q T A R Kac S pT G G K A P R K Q) the binding score was 0.00544. Binder ARTKQTARKSTGGKAPRKQ (A Rme2a T Kme1 Q T A Rme2a Kme3 S T G G K A P R K Q) has a binding score of 0.00435. Work on AR(me2a)TK(Me)QTARKSTGGKAPRKQ (reading uncertain) yielded a binding score of 0.0029. ARTKQTARKSTGGKAPRKQ (A Rme2s T Kme1 Q T A Rme2s Kme1 S T G G K A P R K Q) gave a binding score of 0.00326. ARTKQTARKSTGGKAPRKQ (A Rme2a T Kac Q T A Rme2s Kac S T G G K A P R K Q) was tested, and the binding score was 0.0334. A[Arg(Me2s)]TK(Me)QTARK(Me)STGGKAPRKQ showed a binding score of 0.0029. In the case of ARTKQTARKSTGGKAPRKQ (A R T K Q T A Rme2a Kac S pT G G K A P R K Q), the binding score is reported as 0.00363. Work on ARTKQTARKSTGGKAPRKQ (A R T Kme3 Q T A Rme2a Kme2 S T G G K A P R K Q) yielded a binding score of 0.00254. In the case of ARTKQTARKSTGGKAPRKQ (A Rme2s T Kme3 Q T A Rme2s Kme1 S T G G K A P R K Q), the binding score is reported as 0.00363. With A[Arg(Me2a)]T[Lys(Me3)]QTAR[Kac]STGGKAPRKQ the binding score was 0.0344. A[Arg(Me2s)]T[Lys(Me2)]QTAR[Lys(Me)]STGGKAPRKQ gave a binding score of 0.00544. ARTK(me3)QTAR(me2a)K(me3)STGGKAPRKQ (reading uncertain) gave a binding score of 0.00508. ARTKQTARKSTGGKAPRKQ (A R T K Q T A Rme2a Kac pS pT G G K A P R K Q) showed a binding score of 0.00616. ARTKQTARKSTGGKAPRKQ (A Rme2a T Kme2 Q T A Rme2a K S T G G K A P R K Q) was tested, and the binding score was 0.00508. With ARTKQTARKSTGGKAPRKQ (A Rme2a T Kme3 Q T A Rme2s Kme3 S T G G K A P R K Q) the binding score was 0.00508. In the case of ARTKQTARKSTGGKAPRKQ (A Rme2s T Kme3 Q T A R Kme3 S T G G K A P R K Q), the binding score is reported as 0.00254. AR(me2s)TK(me2)QTAR(me2s)K(me3)STGGKAPRKQ showed a binding score of 0.00218. A[Arg(Me2s)]T[Lys(Me2)]QTA[Arg(Me2a)][Kac]STGGKAPRKQ was tested, and the binding score was 0.0402. Work on AR(Me2a)TK(Me2)QTAR(Me2s)K(Me3)STGGKAPRKQ (reading uncertain) yielded a binding score of 0.00145.
